According to patent publication US20110311550A1:
Read-outs that look alike come from different tables or passages of the source.

How the values were obtained:
[1] = molecular target: HCV E1E2 complex, isolate HCV-1 (genotype 1a), vaccinia-expressed (hepatitis C virus genotype 1a, isolate HCV-1) (UniProt P26664); experiment: apparent affinity: half-maximal binding, ELISA on lectin-captured E1E2
[2] = molecular target: HCV E1E2 complex, isolate H77 (genotype 1a) (hepatitis C virus genotype 1a, isolate H77) (UniProt P27958); experiment: as above
[3] = molecular target: HCV E1E2 complex, isolate H77 (genotype 1a) (hepatitis C virus genotype 1a, isolate H77) (UniProt P27958); experiment: ELISA, mAb with E1E2 (H77), then CD81-LEL plate
[4] = molecular target: HCV E1E2 complex, isolate H77 (genotype 1a) (hepatitis C virus genotype 1a, isolate H77) (UniProt P27958)
[5] = molecular target: E1E2 complex of HCV isolate H77 (genotype 1a), wild type (HCV isolate H77) (UniProt P27958); experiment: competition ELISA on H77 E1E2; competitor m39 (Fab N3)
[6] = molecular target: HCV E1E2 complex, isolate H77 (genotype 1a) (hepatitis C virus genotype 1a, isolate H77) (UniProt P27958); experiment: competition ELISA on lectin-captured H77 E1E2; competitor: Fab Q1
[7] = molecular target: HCV E1E2 complex, isolate H77 (genotype 1a) (hepatitis C virus genotype 1a, isolate H77) (UniProt P27958); experiment: competition ELISA on lectin-captured H77 E1E2; competitor: Fab P6
[8] = molecular target: HCV E1E2 complex, isolate H77 (genotype 1a) (hepatitis C virus genotype 1a, isolate H77) (UniProt P27958); experiment: competition ELISA on lectin-captured H77 E1E2; competitor: Fab P5
[9] = molecular target: HCV E1E2 complex, isolate H77 (genotype 1a) (hepatitis C virus genotype 1a, isolate H77) (UniProt P27958); experiment: competition ELISA on lectin-captured H77 E1E2; competitor: AR2A (in the Blocking Fab columns)
[10] = molecular target: HCV E1E2 complex, isolate H77 (genotype 1a) (hepatitis C virus genotype 1a, isolate H77) (UniProt P27958); experiment: competition ELISA on lectin-captured H77 E1E2; competitor: AR1B (in the Blocking Fab columns)
[11] = molecular target: HCV E1E2 complex, isolate H77 (genotype 1a) (hepatitis C virus genotype 1a, isolate H77) (UniProt P27958); experiment: competition ELISA on lectin-captured H77 E1E2; competitor: Fab U1
[12] = molecular target: E1E2 complex of HCV isolate H77 (genotype 1a), wild type (HCV isolate H77) (UniProt P27958); experiment: competition ELISA on H77 E1E2; competitor m44 (Fab P2)
[13] = molecular target: HCV E1E2 complex, isolate H77 (genotype 1a) (hepatitis C virus genotype 1a, isolate H77) (UniProt P27958); experiment: competition ELISA on lectin-captured H77 E1E2; competitor: Fab Q2
[14] = molecular target: E1E2 complex of HCV isolate H77 (genotype 1a), wild type (HCV isolate H77) (UniProt P27958); experiment: competition ELISA on H77 E1E2; competitor m37 (Fab N1)
[15] = molecular target: E1E2 complex of HCV isolate H77 (genotype 1a), wild type (HCV isolate H77) (UniProt P27958); experiment: competition ELISA on H77 E1E2; competitor m41 (Fab O1)
[16] = molecular target: E1E2 complex of HCV isolate H77 (genotype 1a), wild type (HCV isolate H77) (UniProt P27958); experiment: competition ELISA on H77 E1E2; competitor m42 (Fab P1)
[17] = molecular target: HCV E1E2 complex, isolate H77 (genotype 1a) (hepatitis C virus genotype 1a, isolate H77) (UniProt P27958); experiment: competition ELISA on lectin-captured H77 E1E2; competitor: Fab V1
[18] = molecular target: E1E2 complex of HCV isolate H77 (genotype 1a), wild type (HCV isolate H77) (UniProt P27958); experiment: competition ELISA on H77 E1E2; competitor m40 (Fab N4)
[19] = molecular target: E1E2 complex of HCV isolate H77 (genotype 1a), wild type (HCV isolate H77) (UniProt P27958); experiment: competition ELISA on H77 E1E2; competitor m43 (Fab P1a)
[20] = molecular target: HCV E1E2 complex, isolate H77 (genotype 1a) (hepatitis C virus genotype 1a, isolate H77) (UniProt P27958); experiment: competition ELISA on lectin-captured H77 E1E2; competitor: Fab R1
[21] = molecular target: E1E2 complex of HCV isolate H77 (genotype 1a), wild type (HCV isolate H77) (UniProt P27958); experiment: competition ELISA on H77 E1E2; competitor m45 (Fab P3)
[22] = molecular target: E1E2 complex of HCV isolate H77 (genotype 1a), wild type (HCV isolate H77) (UniProt P27958); experiment: competition ELISA on H77 E1E2; competitor m38 (Fab N2)
[23] = molecular target: E1E2 complex of HCV isolate H77 (genotype 1a), wild type (HCV isolate H77) (UniProt P27958); experiment: competition ELISA on H77 E1E2; competitor m46 (Fab P4)
[24] = molecular target: HCV E1E2 complex, isolate H77 (genotype 1a) (hepatitis C virus genotype 1a, isolate H77) (UniProt P27958); experiment: competition ELISA on lectin-captured H77 E1E2; competitor: Fab T1
[25] = molecular target: HCV E1E2 complex, isolate H77 (genotype 1a) (hepatitis C virus genotype 1a, isolate H77) (UniProt P27958); experiment: competition ELISA on lectin-captured H77 E1E2; competitor: Fab S1

Substance: MAb AR3D (IgG1 from Fab L4) (antibody)
- EC50 [1]: 2.4 nM
- EC50 [2]: 4 nM
- IC50 [3]: 1 nM

Substance: MAb AR3D (antibody)
- residual binding [4]: 58%

Substance: mouse MAb A4 (antibody)
- % residual binding [5]: 96%
- residual binding [6]: 95%
- residual binding [7]: 99%
- residual binding [8]: 100%
- residual binding [9]: 87%
- residual binding [10]: 85%
- residual binding [11]: 101%
- % residual binding [12]: 102%
- residual binding [13]: 98%
- % residual binding [14]: 100%
- % residual binding [15]: 96%
- % residual binding [16]: 101%
- residual binding [17]: 99%
- % residual binding [18]: 100%
- % residual binding [19]: 100%
- residual binding [20]: 99%
- % residual binding [21]: 100%
- % residual binding [22]: 101%
- % residual binding [23]: 98%
- residual binding [24]: 99%
- residual binding [25]: 100%
